*1 amine or outer side, *2 acyl side, *3 side chain or, on linkers, in order; H or OH if unused. Side-chain parts run from the residue outwards. The star is where a group is joined. C18 diacid = O=C(O)CCCCCCCCCCCCCCCCC(=O)*; γGlu = O=C(O)[C@H](CCC(=O)[*:2])N[*:1]; Isovaleryl = CC(C)CC(=O)*; AEEA = NCCOCCOCC(=O)O
T1: human neuropeptide Y2 receptor (human, UniProt P49146 1-381)
T1 construct: whole, on cells; also called hNPY2 receptor; hNPY2-R
T1 sequence (looked up): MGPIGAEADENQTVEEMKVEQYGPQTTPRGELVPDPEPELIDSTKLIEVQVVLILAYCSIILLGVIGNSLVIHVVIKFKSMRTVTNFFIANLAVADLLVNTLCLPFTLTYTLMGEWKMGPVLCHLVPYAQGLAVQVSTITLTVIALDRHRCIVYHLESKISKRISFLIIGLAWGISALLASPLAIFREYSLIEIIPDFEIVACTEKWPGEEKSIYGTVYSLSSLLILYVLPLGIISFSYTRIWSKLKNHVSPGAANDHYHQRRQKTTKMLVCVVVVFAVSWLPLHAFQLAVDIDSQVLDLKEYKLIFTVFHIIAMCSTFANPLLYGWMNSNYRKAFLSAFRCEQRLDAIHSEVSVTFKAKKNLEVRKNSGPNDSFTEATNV

B1: Compound 155 (peptide)
peptide: Isovaleryl-APEK([AEEA-AEEA-γGlu-C18 diacid])PEEDASPEETQRYYVSLRHYYNWLTRQRY-NH2
SMILES: CC(C)CC(=O)N[C@@H](C)C(=O)N1CCC[C@H]1C(=O)N[C@@H](CCC(=O)O)C(=O)N[C@@H](CCCCNC(=O)COCCOCCNC(=O)COCCOCCNC(=O)CC[C@H](NC(=O)CCCCCCCCCCCCCCCCC(=O)O)C(=O)O)C(=O)N1CCC[C@H]1C(=O)N[C@@H](CCC(=O)O)C(=O)N[C@@H](CCC(=O)O)C(=O)N[C@@H](CC(=O)O)C(=O)N[C@@H](C)C(=O)N[C@@H](CO)C(=O)N1CCC[C@H]1C(=O)N[C@@H](CCC(=O)O)C(=O)N[C@@H](CCC(=O)O)C(=O)N[C@H](C(=O)N[C@@H](CCC(N)=O)C(=O)N[C@@H](CCCNC(=N)N)C(=O)N[C@@H](Cc1ccc(O)cc1)C(=O)N[C@@H](Cc1ccc(O)cc1)C(=O)N[C@H](C(=O)N[C@@H](CO)C(=O)N[C@@H](CC(C)C)C(=O)N[C@@H](CCCNC(=N)N)C(=O)N[C@@H](Cc1c[nH]cn1)C(=O)N[C@@H](Cc1ccc(O)cc1)C(=O)N[C@@H](Cc1ccc(O)cc1)C(=O)N[C@@H](CC(N)=O)C(=O)N[C@@H](Cc1c[nH]c2ccccc12)C(=O)N[C@@H](CC(C)C)C(=O)N[C@H](C(=O)N[C@@H](CCCNC(=N)N)C(=O)N[C@@H](CCC(N)=O)C(=O)N[C@@H](CCCNC(=N)N)C(=O)N[C@@H](Cc1ccc(O)cc1)C(N)=O)[C@@H](C)O)C(C)C)[C@@H](C)O
B2: Compound 158 (peptide)
peptide: Isovaleryl-APEK([AEEA-AEEA-γGlu-C18 diacid])PEEDASPEELQRYYVSLRHYWNYLTRQRY-NH2
SMILES: CC(C)CC(=O)N[C@@H](C)C(=O)N1CCC[C@H]1C(=O)N[C@@H](CCC(=O)O)C(=O)N[C@@H](CCCCNC(=O)COCCOCCNC(=O)COCCOCCNC(=O)CC[C@H](NC(=O)CCCCCCCCCCCCCCCCC(=O)O)C(=O)O)C(=O)N1CCC[C@H]1C(=O)N[C@@H](CCC(=O)O)C(=O)N[C@@H](CCC(=O)O)C(=O)N[C@@H](CC(=O)O)C(=O)N[C@@H](C)C(=O)N[C@@H](CO)C(=O)N1CCC[C@H]1C(=O)N[C@@H](CCC(=O)O)C(=O)N[C@@H](CCC(=O)O)C(=O)N[C@@H](CC(C)C)C(=O)N[C@@H](CCC(N)=O)C(=O)N[C@@H](CCCNC(=N)N)C(=O)N[C@@H](Cc1ccc(O)cc1)C(=O)N[C@@H](Cc1ccc(O)cc1)C(=O)N[C@H](C(=O)N[C@@H](CO)C(=O)N[C@@H](CC(C)C)C(=O)N[C@@H](CCCNC(=N)N)C(=O)N[C@@H](Cc1c[nH]cn1)C(=O)N[C@@H](Cc1ccc(O)cc1)C(=O)N[C@@H](Cc1c[nH]c2ccccc12)C(=O)N[C@@H](CC(N)=O)C(=O)N[C@@H](Cc1ccc(O)cc1)C(=O)N[C@@H](CC(C)C)C(=O)N[C@H](C(=O)N[C@@H](CCCNC(=N)N)C(=O)N[C@@H](CCC(N)=O)C(=O)N[C@@H](CCCNC(=N)N)C(=O)N[C@@H](Cc1ccc(O)cc1)C(N)=O)[C@@H](C)O)C(C)C
B3: Compound 160 (peptide)
peptide: Isovaleryl-APEK([AEEA-AEEA-γGlu-C18 diacid])PEADAEPEELQRYYTSLRHYYNWLTRQRY-NH2
SMILES: CC(C)CC(=O)N[C@@H](C)C(=O)N1CCC[C@H]1C(=O)N[C@@H](CCC(=O)O)C(=O)N[C@@H](CCCCNC(=O)COCCOCCNC(=O)COCCOCCNC(=O)CC[C@H](NC(=O)CCCCCCCCCCCCCCCCC(=O)O)C(=O)O)C(=O)N1CCC[C@H]1C(=O)N[C@@H](CCC(=O)O)C(=O)N[C@@H](C)C(=O)N[C@@H](CC(=O)O)C(=O)N[C@@H](C)C(=O)N[C@@H](CCC(=O)O)C(=O)N1CCC[C@H]1C(=O)N[C@@H](CCC(=O)O)C(=O)N[C@@H](CCC(=O)O)C(=O)N[C@@H](CC(C)C)C(=O)N[C@@H](CCC(N)=O)C(=O)N[C@@H](CCCNC(=N)N)C(=O)N[C@@H](Cc1ccc(O)cc1)C(=O)N[C@@H](Cc1ccc(O)cc1)C(=O)N[C@H](C(=O)N[C@@H](CO)C(=O)N[C@@H](CC(C)C)C(=O)N[C@@H](CCCNC(=N)N)C(=O)N[C@@H](Cc1c[nH]cn1)C(=O)N[C@@H](Cc1ccc(O)cc1)C(=O)N[C@@H](Cc1ccc(O)cc1)C(=O)N[C@@H](CC(N)=O)C(=O)N[C@@H](Cc1c[nH]c2ccccc12)C(=O)N[C@@H](CC(C)C)C(=O)N[C@H](C(=O)N[C@@H](CCCNC(=N)N)C(=O)N[C@@H](CCC(N)=O)C(=O)N[C@@H](CCCNC(=N)N)C(=O)N[C@@H](Cc1ccc(O)cc1)C(N)=O)[C@@H](C)O)[C@@H](C)O
B4: Compound 163 (peptide)
peptide: Isovaleryl-APEK([AEEA-AEEA-γGlu-C18 diacid])PEEAASPEELQRYYVALRHYYNWLTRQRY-NH2
SMILES: CC(C)CC(=O)N[C@@H](C)C(=O)N1CCC[C@H]1C(=O)N[C@@H](CCC(=O)O)C(=O)N[C@@H](CCCCNC(=O)COCCOCCNC(=O)COCCOCCNC(=O)CC[C@H](NC(=O)CCCCCCCCCCCCCCCCC(=O)O)C(=O)O)C(=O)N1CCC[C@H]1C(=O)N[C@@H](CCC(=O)O)C(=O)N[C@@H](CCC(=O)O)C(=O)N[C@@H](C)C(=O)N[C@@H](C)C(=O)N[C@@H](CO)C(=O)N1CCC[C@H]1C(=O)N[C@@H](CCC(=O)O)C(=O)N[C@@H](CCC(=O)O)C(=O)N[C@@H](CC(C)C)C(=O)N[C@@H](CCC(N)=O)C(=O)N[C@@H](CCCNC(=N)N)C(=O)N[C@@H](Cc1ccc(O)cc1)C(=O)N[C@@H](Cc1ccc(O)cc1)C(=O)N[C@H](C(=O)N[C@@H](C)C(=O)N[C@@H](CC(C)C)C(=O)N[C@@H](CCCNC(=N)N)C(=O)N[C@@H](Cc1c[nH]cn1)C(=O)N[C@@H](Cc1ccc(O)cc1)C(=O)N[C@@H](Cc1ccc(O)cc1)C(=O)N[C@@H](CC(N)=O)C(=O)N[C@@H](Cc1c[nH]c2ccccc12)C(=O)N[C@@H](CC(C)C)C(=O)N[C@H](C(=O)N[C@@H](CCCNC(=N)N)C(=O)N[C@@H](CCC(N)=O)C(=O)N[C@@H](CCCNC(=N)N)C(=O)N[C@@H](Cc1ccc(O)cc1)C(N)=O)[C@@H](C)O)C(C)C
B5: Compound 165 (peptide)
peptide: Isovaleryl-APEK([AEEA-AEEA-γGlu-C18 diacid])PEEDASPEELQRYQVSLRHYYNWLTRQRY-NH2
SMILES: CC(C)CC(=O)N[C@@H](C)C(=O)N1CCC[C@H]1C(=O)N[C@@H](CCC(=O)O)C(=O)N[C@@H](CCCCNC(=O)COCCOCCNC(=O)COCCOCCNC(=O)CC[C@H](NC(=O)CCCCCCCCCCCCCCCCC(=O)O)C(=O)O)C(=O)N1CCC[C@H]1C(=O)N[C@@H](CCC(=O)O)C(=O)N[C@@H](CCC(=O)O)C(=O)N[C@@H](CC(=O)O)C(=O)N[C@@H](C)C(=O)N[C@@H](CO)C(=O)N1CCC[C@H]1C(=O)N[C@@H](CCC(=O)O)C(=O)N[C@@H](CCC(=O)O)C(=O)N[C@@H](CC(C)C)C(=O)N[C@@H](CCC(N)=O)C(=O)N[C@@H](CCCNC(=N)N)C(=O)N[C@@H](Cc1ccc(O)cc1)C(=O)N[C@@H](CCC(N)=O)C(=O)N[C@H](C(=O)N[C@@H](CO)C(=O)N[C@@H](CC(C)C)C(=O)N[C@@H](CCCNC(=N)N)C(=O)N[C@@H](Cc1c[nH]cn1)C(=O)N[C@@H](Cc1ccc(O)cc1)C(=O)N[C@@H](Cc1ccc(O)cc1)C(=O)N[C@@H](CC(N)=O)C(=O)N[C@@H](Cc1c[nH]c2ccccc12)C(=O)N[C@@H](CC(C)C)C(=O)N[C@H](C(=O)N[C@@H](CCCNC(=N)N)C(=O)N[C@@H](CCC(N)=O)C(=O)N[C@@H](CCCNC(=N)N)C(=O)N[C@@H](Cc1ccc(O)cc1)C(N)=O)[C@@H](C)O)C(C)C
B6: Compound 166 (peptide)
peptide: Isovaleryl-APEK([AEEA-AEEA-γGlu-C18 diacid])PPADASPEELQRYYVELRHYYNWLTRQRY-NH2
SMILES: CC(C)CC(=O)N[C@@H](C)C(=O)N1CCC[C@H]1C(=O)N[C@@H](CCC(=O)O)C(=O)N[C@@H](CCCCNC(=O)COCCOCCNC(=O)COCCOCCNC(=O)CC[C@H](NC(=O)CCCCCCCCCCCCCCCCC(=O)O)C(=O)O)C(=O)N1CCC[C@H]1C(=O)N1CCC[C@H]1C(=O)N[C@@H](C)C(=O)N[C@@H](CC(=O)O)C(=O)N[C@@H](C)C(=O)N[C@@H](CO)C(=O)N1CCC[C@H]1C(=O)N[C@@H](CCC(=O)O)C(=O)N[C@@H](CCC(=O)O)C(=O)N[C@@H](CC(C)C)C(=O)N[C@@H](CCC(N)=O)C(=O)N[C@@H](CCCNC(=N)N)C(=O)N[C@@H](Cc1ccc(O)cc1)C(=O)N[C@@H](Cc1ccc(O)cc1)C(=O)N[C@H](C(=O)N[C@@H](CCC(=O)O)C(=O)N[C@@H](CC(C)C)C(=O)N[C@@H](CCCNC(=N)N)C(=O)N[C@@H](Cc1c[nH]cn1)C(=O)N[C@@H](Cc1ccc(O)cc1)C(=O)N[C@@H](Cc1ccc(O)cc1)C(=O)N[C@@H](CC(N)=O)C(=O)N[C@@H](Cc1c[nH]c2ccccc12)C(=O)N[C@@H](CC(C)C)C(=O)N[C@H](C(=O)N[C@@H](CCCNC(=N)N)C(=O)N[C@@H](CCC(N)=O)C(=O)N[C@@H](CCCNC(=N)N)C(=O)N[C@@H](Cc1ccc(O)cc1)C(N)=O)[C@@H](C)O)C(C)C

target: T1, human neuropeptide Y2 receptor; test: radioligand competition (125I-PYY(1-36)), hNPY2R membranes
Procedure, shortened: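 Commercial human Y2 receptor membranes (0.5 μg protein/well) were incubated with peptide for 2 h at room temperature in 50 mM HEPES, 5 mM MgCl₂, 1 mM CaCl₂, pH 7.4, with 0.2% ovalbumin. Bound radioligand was separated on PEI-soaked GF/C filters and counted by scintillation, and IC₅₀ came from nonlinear sigmoidal regression.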

Going from B1 to B2, the Ki rises from 2.05 nM to 4.43 nM (2.2-fold).

Compared with B3, B4 is 2.1-fold lower in Ki: 2 nM for the first, 0.96 nM for the second.

Going from B5 to B6, the Ki falls from 2.49 nM to 0.66 nM (3.8-fold).

— patent publication US20210139548A1 (published 2021)
